B1: ANKRD9 (parent)
chain: LLEDMRASEAFHWDERGRAAAYSP
B2: EPB41L3 (parent)
chain: SELGDYDPDECGSDYISEFRFAPN

Variants of: B1
Test: protein stability index of a GFP-peptide fusion (GPS, HEK-293T) (PSI 1-6); higher = more stable
Settings: c terminus: a fixed tail appended
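Note: lentivirally expressed fusions sorted by FACS into six bins by GFP to DsRed ratio, PSI derived from sequencing read proportions per bin multiplied by bin number.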

Protein stability index of substitutions, site by site:
E3: I 1.85 | N 1.32 | S 1.43 | D 1.92 | L 3.26 | A 2.72 | P 4.09 | Y 1.55 | F 2.08 | K 2.49 | C 1.51 | T 2.31 | R 3.42 | H 2.19 | M 1.15 | Q 2.38
L2: S 3.94 | I 4.67 | N 3.3 | M 2.67 | R 3.27 | H 4.13 | E 4.52 | Y 1.71 | F 2.53 | W 1.9 | C 4.06 | K 3.25 | A 3.15 | G 3.74 | T 3.88 | V 3.17 | P 4.37 | Q 3.66 | D 3.98
L1: R 3.93 | Q 4.37 | N 3.97 | S 4.22 | E 4.29 | I 2.44 | K 3.4 | A 3.72 | W 3.01 | Y 3.54 | D 4.18 | T 4.04 | C 3.2 | H 4.71 | P 4.77 | M 2.52 | F 3.36 | V 2.91
D4: Q 2.14 | C 2.44 | A 2.36 | H 2.69 | K 2.37 | I 2 | N 2.5 | G 2.52 | M 1.44 | P 3.91 | L 1.64 | E 2.03 | F 2

Variants of: B2
Test: as above
Settings: c terminus: a fixed tail appended

Protein stability index of substitutions, site by site:
C11: V 1.91 | I 2.2 | W 1.68 | F 1.77 | H 1.6 | G 2.26 | T 1.94 | P 1.78 | N 2.27 | M 2 | Q 2.49 | R 2.01 | E 2.7 | L 2.06 | A 2.02 | D 2.8 | Y 2.1 | S 2.51 | K 2.26
E18: T 1.94 | K 2.5 | P 1.66 | V 2.06 | M 1.96 | A 2.1 | H 2.37 | Y 1.67 | D 1.83 | L 2.45 | S 2.15 | F 2.17 | N 2.15 | R 2.11 | G 2.16 | C 2.2 | Q 1.53 | W 1.99 | I 2.41
E10: Y 1.55 | W 1.91
A22: V 3.42 | G 4.21 | Y 3.51 | P 4 | Q 2.39 | R 4.12 | N 3.46 | E 4.24 | I 2.24 | D 4.92 | W 3.47 | C 2.59 | T 1.85 | H 2.13 | S 3.33 | M 3.48 | L 3.73 | F 3.5 | K 4.27
G12: V 1.95 | H 2.22 | C 1.55 | I 2.16 | Q 2.04 | F 1.72 | S 2.15 | L 2.15 | K 1.9 | N 2 | E 2.11 | W 1.83 | Y 2.32 | M 1.88 | R 1.77 | A 2.02 | T 1.93 | P 2.12 | D 3.19
P23: Y 2.89 | G 2.37 | Q 2.92 | V 2.53 | W 2.47 | F 2.96 | R 1.53 | C 2.12 | A 2.48 | L 2.81 | H 2.44 | S 2.51 | D 4 | N 2.42 | M 3.26 | E 4.66 | K 2.68 | T 3.15 | I 2.7
R20: V 4.4 | N 4.54 | Y 3.75 | D 4.72 | F 4.09 | M 3.92 | H 4.32 | W 3.92 | P 4.81 | A 4.25 | L 4.02 | S 4.68 | K 4.53 | C 4.56 | Q 4.7 | T 4.18 | E 5.02 | G 4.79 | I 3.75
F21: N 4.74 | D 4.68 | I 4.38 | E 4.78 | H 4.17 | L 4.61 | K 5.22 | Y 4.55 | R 4.64 | P 4.96 | V 4.52 | G 5.01 | Q 4.97 | T 4.87 | S 5.07 | A 4.75 | W 4.24 | M 4.43 | C 4.69
S17: Y 1.7 | A 2.33 | I 1.94 | C 2.52 | T 1.61 | R 2.34 | L 2.68 | M 2.11 | D 3.94 | H 1.88 | G 2.36 | W 1.76 | E 3.88 | K 2.32 | V 2.2 | P 1.52 | N 2.57 | Q 2.44 | F 1.7
I16: P 3.7 | R 3.47 | C 3.41 | L 2.56 | N 4.52 | Q 3.81 | K 3.37 | V 2.76 | S 4.05 | T 3.8 | A 4.33 | G 4.45 | Y 3.47 | E 4.6 | F 2.26 | W 3.24 | H 4.14 | D 4.99 | M 2.24
F19: L 3.84 | Y 4.57 | V 4.38 | T 4.97 | P 4.97 | E 5.42 | D 5.28 | S 5.13 | M 3.91 | I 4.67 | N 5.06 | G 4.99 | Q 5.04 | R 4.78 | A 4.66 | K 4.83 | W 2.61 | H 4.85 | C 4.68
N24: H 1.66 | S 1.87 | R 2.44 | W 2.45 | K 1.69 | T 2.12 | A 2.6 | L 2.02 | Q 2.09 | D 2.89 | M 1.79 | G 2.33 | C 1.64 | F 2.25 | I 2.55 | P 2.84 | Y 2.15 | V 2.55 | E 3.33
S13: E 2.59 | K 1.82 | L 1.97 | C 1.84 | W 2.22 | T 1.69 | Y 1.91 | M 2 | H 2.1 | R 1.95 | V 1.76 | P 2.28 | A 2.08 | G 2.09 | Q 2.09 | F 2.11 | D 2.7 | I 2.37 | N 2.34
D14: L 2.41 | R 2.51 | P 1.63 | T 2.58 | S 1.61 | Y 2.11 | V 1.31 | I 2.32 | M 2.07 | E 1.5 | K 1.49 | G 1.27 | W 1.66 | C 1.89 | F 2.43 | A 1.46 | Q 1.47 | N 1.99 | H 1.86
Y15: T 2.7 | I 2.5 | C 2.84 | A 2.46 | W 1.97 | S 3.43 | E 4.13 | G 3.75 | D 4.23 | P 1.84 | Q 3.05 | M 2.91 | F 2.18 | N 4.06 | V 2.52 | R 2.74 | L 2.35 | K 2.77 | H 2.87

— the supplement of paper PMC10567573
